Data reported in patent publication US20180087042A1 (OPKO BIOLOGICS, published 2018).

Assays:
[1] = biological target: MOD-5014 (FVIIa-CTP3: activated Factor VII with three CTP peptides attached at the C-terminus) (human) (UniProt P08709); assay: cell-based or functional assay
[2] = biological target: NovoSeven® (commercial recombinant human FVIIa) (human) (UniProt P08709); assay: cell-based or functional assay

tissue factor pathway inhibitor (TFPI), sequence (P10646 29-304 limits assumed): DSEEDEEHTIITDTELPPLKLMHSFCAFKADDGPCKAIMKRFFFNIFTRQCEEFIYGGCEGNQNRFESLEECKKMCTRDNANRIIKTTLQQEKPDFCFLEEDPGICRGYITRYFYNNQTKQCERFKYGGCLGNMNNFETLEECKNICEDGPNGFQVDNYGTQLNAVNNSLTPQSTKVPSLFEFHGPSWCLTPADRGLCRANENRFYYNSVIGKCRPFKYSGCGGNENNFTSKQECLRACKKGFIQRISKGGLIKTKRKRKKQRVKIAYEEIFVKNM

% Inhibition of clotting activity, TFPI 0.625 ng/mL [1]: 15%
% Inhibition of clotting activity, TFPI 6.25 ng/mL [1]: 15%
% Inhibition of clotting activity, TFPI 62.5 ng/mL [1]: 29%
% Inhibition of clotting activity, TFPI 625 ng/mL [1]: 80%
% Inhibition of clotting activity, TFPI 1250 ng/mL [1]: 89%
Activity (mU/mL), Staclot clotting, TFPI 0.625 ng/mL [1]: 56.7 mU/mL
Activity (mU/mL), Staclot clotting, TFPI 6.25 ng/mL [1]: 56.7 mU/mL
Activity (mU/mL), Staclot clotting, TFPI 62.5 ng/mL [1]: 47.4 mU/mL
Activity (mU/mL), Staclot clotting, TFPI 625 ng/mL [1]: 13.2 mU/mL
Activity (mU/mL), Staclot clotting, TFPI 1250 ng/mL [1]: 7.3 mU/mL
FX activation by MOD-5014 (0.7 ng/ml) + 1 U/µl heparin at TFPI 0.002048 ng/ml [1]: 1.27
FX activation by MOD-5014 (0.7 ng/ml) + 1 U/µl heparin at TFPI 0.010240 ng/ml [1]: 1.29
FX activation by MOD-5014 (0.7 ng/ml) + 1 U/µl heparin at TFPI 0.051200 ng/ml [1]: 1.35
FX activation by MOD-5014 (0.7 ng/ml) + 1 U/µl heparin at TFPI 1.28 ng/ml [1]: 1.26
FX activation by MOD-5014 (0.7 ng/ml) + 1 U/µl heparin at TFPI 6.40 ng/ml [1]: 1.16
FX activation by MOD-5014 (0.7 ng/ml) + 1 U/µl heparin at TFPI 32.00 ng/ml [1]: 0.915
FX activation by MOD-5014 (0.7 ng/ml) + 1 U/µl heparin at TFPI 160.00 ng/ml [1]: 0.539
FX activation by MOD-5014 (0.7 ng/ml) + 1 U/µl heparin at TFPI 800.00 ng/ml [1]: 0.32
FX activation by MOD-5014 (0.7 ng/ml) + 1 U/µl heparin at TFPI 4000.00 ng/ml [1]: 0.115
FX activation by MOD-5014 (0.7 ng/ml) + 1 U/µl heparin at TFPI 20000.00 ng/ml [1]: 0.15
FX activation by MOD-5014 (4 ng/ml) at TFPI 0.002048 ng/ml [1]: 1.65
FX activation by MOD-5014 (4 ng/ml) at TFPI 0.010240 ng/ml [1]: 1.64
FX activation by MOD-5014 (4 ng/ml) at TFPI 0.051200 ng/ml [1]: 1.6
FX activation by MOD-5014 (4 ng/ml) at TFPI 0.2560 ng/ml [1]: 1.62
FX activation by MOD-5014 (4 ng/ml) at TFPI 1.28 ng/ml [1]: 1.56
FX activation by MOD-5014 (4 ng/ml) at TFPI 6.40 ng/ml [1]: 1.54
FX activation by MOD-5014 (4 ng/ml) at TFPI 32.00 ng/ml [1]: 1.47
FX activation by MOD-5014 (4 ng/ml) at TFPI 160.00 ng/ml [1]: 1.14
FX activation by MOD-5014 (4 ng/ml) at TFPI 800.00 ng/ml [1]: 0.836
FX activation by MOD-5014 (4 ng/ml) at TFPI 4000.00 ng/ml [1]: 0.38
FX activation by MOD-5014 (4 ng/ml) at TFPI 20000.00 ng/ml [1]: 0.17
O.D, FX activation by MOD-5014 (0.69 ng/ml) at TFPI 0.002048 ng/ml [1]: 1.48 O.D
O.D, FX activation by MOD-5014 (0.69 ng/ml) at TFPI 0.010240 ng/ml [1]: 1.45 O.D
O.D, FX activation by MOD-5014 (0.69 ng/ml) at TFPI 0.051200 ng/ml [1]: 1.45 O.D
O.D, FX activation by MOD-5014 (0.69 ng/ml) at TFPI 0.2560 ng/ml [1]: 1.46 O.D
O.D, FX activation by MOD-5014 (0.69 ng/ml) at TFPI 1.28 ng/ml [1]: 1.39 O.D
O.D, FX activation by MOD-5014 (0.69 ng/ml) at TFPI 6.40 ng/ml [1]: 1.38 O.D
O.D, FX activation by MOD-5014 (0.69 ng/ml) at TFPI 32.00 ng/ml [1]: 1.36 O.D
O.D, FX activation by MOD-5014 (0.69 ng/ml) at TFPI 160.00 ng/ml [1]: 1.11 O.D
O.D, FX activation by MOD-5014 (0.69 ng/ml) at TFPI 800.00 ng/ml [1]: 1.01 O.D
O.D, FX activation by MOD-5014 (0.69 ng/ml) at TFPI 4000.00 ng/ml [1]: 0.691 O.D
O.D, FX activation by MOD-5014 (0.69 ng/ml) at TFPI 20000.00 ng/ml [1]: 0.346 O.D
% Inhibition of clotting activity, TFPI 0.625 ng/mL [2]: 25%
% Inhibition of clotting activity, TFPI 6.25 ng/mL [2]: 24%
% Inhibition of clotting activity, TFPI 62.5 ng/mL [2]: 38%
% Inhibition of clotting activity, TFPI 625 ng/mL [2]: 87%
% Inhibition of clotting activity, TFPI 1250 ng/mL [2]: 96%
Activity (mU/mL), Staclot clotting, TFPI 0.625 ng/mL [2]: 54.5 mU/mL
Activity (mU/mL), Staclot clotting, TFPI 6.25 ng/mL [2]: 55.3 mU/mL
Activity (mU/mL), Staclot clotting, TFPI 62.5 ng/mL [2]: 45 mU/mL
Activity (mU/mL), Staclot clotting, TFPI 625 ng/mL [2]: 9.5 mU/mL
Activity (mU/mL), Staclot clotting, TFPI 1250 ng/mL [2]: 2.9 mU/mL
FX activation by NovoSeven® (0.7 ng/ml) + 1 U/µl heparin at TFPI 0.002048 ng/ml [2]: 1.33
FX activation by NovoSeven® (0.7 ng/ml) + 1 U/µl heparin at TFPI 0.010240 ng/ml [2]: 1.3
FX activation by NovoSeven® (0.7 ng/ml) + 1 U/µl heparin at TFPI 0.051200 ng/ml [2]: 1.37
FX activation by NovoSeven® (0.7 ng/ml) + 1 U/µl heparin at TFPI 1.28 ng/ml [2]: 1.31
FX activation by NovoSeven® (0.7 ng/ml) + 1 U/µl heparin at TFPI 6.40 ng/ml [2]: 1.21
FX activation by NovoSeven® (0.7 ng/ml) + 1 U/µl heparin at TFPI 32.00 ng/ml [2]: 1.01
FX activation by NovoSeven® (0.7 ng/ml) + 1 U/µl heparin at TFPI 160.00 ng/ml [2]: 0.764
FX activation by NovoSeven® (0.7 ng/ml) + 1 U/µl heparin at TFPI 800.00 ng/ml [2]: 0.409
FX activation by NovoSeven® (0.7 ng/ml) + 1 U/µl heparin at TFPI 4000.00 ng/ml [2]: 0.241
FX activation by NovoSeven® (0.7 ng/ml) + 1 U/µl heparin at TFPI 20000.00 ng/ml [2]: 0.222
FX activation by NovoSeven® (4 ng/ml) at TFPI 0.002048 ng/ml [2]: 1.72
FX activation by NovoSeven® (4 ng/ml) at TFPI 0.010240 ng/ml [2]: 1.7
FX activation by NovoSeven® (4 ng/ml) at TFPI 0.051200 ng/ml [2]: 1.73
FX activation by NovoSeven® (4 ng/ml) at TFPI 0.2560 ng/ml [2]: 1.7
FX activation by NovoSeven® (4 ng/ml) at TFPI 1.28 ng/ml [2]: 1.66
FX activation by NovoSeven® (4 ng/ml) at TFPI 6.40 ng/ml [2]: 1.59
FX activation by NovoSeven® (4 ng/ml) at TFPI 32.00 ng/ml [2]: 1.5
FX activation by NovoSeven® (4 ng/ml) at TFPI 160.00 ng/ml [2]: 1.34
FX activation by NovoSeven® (4 ng/ml) at TFPI 800.00 ng/ml [2]: 1.02
FX activation by NovoSeven® (4 ng/ml) at TFPI 4000.00 ng/ml [2]: 0.406
FX activation by NovoSeven® (4 ng/ml) at TFPI 20000.00 ng/ml [2]: 0.206
O.D, FX activation by NovoSeven® (0.64 ng/ml) at TFPI 0.002048 ng/ml [2]: 1.5 O.D
O.D, FX activation by NovoSeven® (0.64 ng/ml) at TFPI 0.010240 ng/ml [2]: 1.51 O.D
O.D, FX activation by NovoSeven® (0.64 ng/ml) at TFPI 0.051200 ng/ml [2]: 1.52 O.D
O.D, FX activation by NovoSeven® (0.64 ng/ml) at TFPI 0.2560 ng/ml [2]: 1.43 O.D
O.D, FX activation by NovoSeven® (0.64 ng/ml) at TFPI 1.28 ng/ml [2]: 1.47 O.D
O.D, FX activation by NovoSeven® (0.64 ng/ml) at TFPI 6.40 ng/ml [2]: 1.42 O.D
O.D, FX activation by NovoSeven® (0.64 ng/ml) at TFPI 32.00 ng/ml [2]: 1.38 O.D
O.D, FX activation by NovoSeven® (0.64 ng/ml) at TFPI 160.00 ng/ml [2]: 1.34 O.D
O.D, FX activation by NovoSeven® (0.64 ng/ml) at TFPI 800.00 ng/ml [2]: 1.04 O.D
O.D, FX activation by NovoSeven® (0.64 ng/ml) at TFPI 4000.00 ng/ml [2]: 0.83 O.D
O.D, FX activation by NovoSeven® (0.64 ng/ml) at TFPI 20000.00 ng/ml [2]: 0.429 O.D
Substance: tissue factor pathway inhibitor (TFPI) (from UniProt P10646 29-304)
